Among the data in article PMC5940873, “NADH/NADPH bi-cofactor-utilizing and thermoactive ketol-acid reductoisomerase from Sulfolobus acidocaldarius” (Scientific Reports, 2018) are Km, kcat and kcat/Km values, retold here.

Common to all, as to experiment: purified protein
Holding throughout (type): biochemical, Sulfolobus acidocaldarius

Substrate in data set [1]: NC(=O)C1=CN([C@@H]2O[C@H](COP(=O)(O)OP(=O)(O)OC[C@H]3O[C@@H](n4cnc5c(N)ncnc54)[C@H](O)[C@@H]3O)[C@@H](O)[C@H]2O)C=CC1
The settings on record: 5 mM 2S-AL (saturating), 10 mM MgSO4, 100 mM phosphate pH 8.0, 25 °C, varied: cofactor.

Substrate in data set [2]: CC(=O)[C@](C)(O)C(=O)O
The settings on record: 0.22 mM NADPH, 10 mM MgSO4, 100 mM phosphate pH 8.0, 25 °C, racemic 2-acetolactate used, concentration counted as the S enantiomer.

Substrate in data set [3]: NC(=O)C1=CN([C@@H]2O[C@H](COP(=O)(O)OP(=O)(O)OC[C@H]3O[C@@H](n4cnc5c(N)ncnc54)[C@H](OP(=O)(O)O)[C@@H]3O)[C@@H](O)[C@H]2O)C=CC1
The settings on record: 5 mM 2S-AL (saturating), 10 mM MgSO4, 100 mM phosphate pH 8.0, 25 °C, varied: cofactor.

By Km is commonly meant the substrate concentration at which the rate is half of its maximum. The term kcat denotes the maximal rate divided by the concentration of active sites. Broadly, the kcat/Km is the second-order rate constant that governs catalysis at low substrate concentration.

B1: Sac-KARI (Sulfolobus acidocaldarius DSM 639) (protein)
chain: MAKIYTDKDVSLDVIKEKRVAVLGYGSQGRAWALNLRDSGIKVSVGLEREGNSWKQAENDGFKPLRTEEAVRNSDIIIFLLPDMIQRTVYLERVKPYLKEGMDLVFAHGFNIHYRLIEPPSNVDVYMIAPKAPGPIVREYFAKGGGVPALVATYQDHSGKALQKALAVAKAIGATRAGVIETTFKEETETDLFGEQVDLVGGVMQLMRYAFQTLVEAGYQPEVAYFETINEMKLIVDLVYEKGFSGMLTAVSDTAKYGGMTVGKMVIDESVKERMKKALDNIRSGKFAEKWVEEYGKGANTIKEGMKEVDNSTEEKVGRSLRDIILRGKPKS
notes: pET-21a NdeI/XhoI, His-tag retained; E. coli BL21(DE3); heat step, Ni-NTA, gel filtration; homodimer ~70 kDa (theoretical ~74 kDa); beta2-alphaB loop LEREGNS; R49, S53, D191, E195, E227, E231
On to B1, for which, in the data set “purified protein [1]”, the Michaelis-Menten constant (Km) was 6.0 ± 0.8 µM, the kcat was 0.056 ± 0.001 s⁻¹ and the kcat/Km amounted to 9500 ± 1300 M⁻¹ s⁻¹. Moreover, in the data set “purified protein [2]”, the Km was 140 ± 6 µM, the kcat turned out to be 0.068 ± 0.001 s⁻¹ and the kcat/Km was 490 ± 20 M⁻¹ s⁻¹. Moreover, in “purified protein [3]”, the Km came out at 0.4 ± 0.2 µM, the kcat turned out to be 0.064 ± 0.001 s⁻¹ and the kcat/Km is 186000 ± 80500 M⁻¹ s⁻¹.
